This note sets out measurements from EP1746106A2 (Biogen Idec MA Inc., dated 2007).

Experiment [1] deals with T1, N-terminus FLAG-tagged human full length TACI expressed on 293EBNA cells (pJST552) (human, UniProt O14836 1-293).
T1 construct: also called FLAG-tagged full length human TACI; flag-tagged full length TACI; not shown: N-terminal FLAG tag
T1 sequence: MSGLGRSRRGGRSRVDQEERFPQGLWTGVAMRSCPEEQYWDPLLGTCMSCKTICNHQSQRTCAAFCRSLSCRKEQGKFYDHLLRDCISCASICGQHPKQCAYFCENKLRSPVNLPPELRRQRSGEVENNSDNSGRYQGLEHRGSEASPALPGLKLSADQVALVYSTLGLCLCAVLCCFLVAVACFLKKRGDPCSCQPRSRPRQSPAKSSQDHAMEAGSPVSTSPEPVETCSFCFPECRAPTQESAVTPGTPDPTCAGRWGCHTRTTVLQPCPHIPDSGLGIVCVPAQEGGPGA
The experiment is described as follows: flow cytometry on 293EBNA cells transfected with FLAG-tagged full length human TACI; detection with rabbit anti-mAPRIL Rb1532 and anti-rabbit IgG-PE.

For experiment [2], the target named is T2, FLAG-tagged soluble muBAFF (murine, UniProt Q9WU72 127-309, limits assumed).
T2 construct: Anti-FLAG M2-purified, 500 ng used; not shown: FLAG tag
T2 sequence (Q9WU72 127-309 limits assumed): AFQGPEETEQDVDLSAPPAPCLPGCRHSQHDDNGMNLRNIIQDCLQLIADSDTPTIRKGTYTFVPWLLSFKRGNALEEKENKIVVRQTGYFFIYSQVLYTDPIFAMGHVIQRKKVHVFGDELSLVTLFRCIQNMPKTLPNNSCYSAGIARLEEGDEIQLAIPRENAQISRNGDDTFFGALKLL
The experiment is described as follows: co-immunoprecipitation with protein A-Sepharose, anti-FLAG M2 Western blot. A general note: Immunoblotting shows a protein as a band on a membrane.

B1: myc-tagged murine APRIL (ligand)
chain: EQKLISEEDLNGGGGSKELAVLTQKHKKKHSVLHLVPVNITSKDSDVTEVMWQPVLRRGRGLEAQGDIVRVWDTGIYLLYSQVLFHDVTFTMGQVVSREGQGRRETLFRCIRSMPSDPDRAYNSCYSAGVFHLHQGDIITVKIPRANAKLSLSPHGTFLGFVKL
modifications: Glycosylated (expressed in Pichia pastoris); the letters do not carry the glycans.
notes: Purified from P. pastoris supernate; also called myc-muAPRIL; Myc-Murine APRIL A88
For B1, in experiment [1], the binding result is “binds”.

B2: human TACI(1-160)-Ig fusion protein (Fc fusion)
chain: MSGLGRSRRGGRSRVDQEERFPQGLWTGVAMRSCPEEQYWDPLLGTCMSCKTICNHQSQRTCAAFCRSLSCRKEQGKFYDHLLRDCISCASICGQHPKQCAYFCENKLRSPVNLPPELRRQRSGEVENNSDNSGRYQGLEHRGSEASPALPGLKLSADQV
notes: Used as conditioned medium (Optimem) from transfected 293 cells; also called hTACI(1-160)-Ig; PS882 product; not shown: human IgG-Fc
B2: in experiment [2], the binding result was “no binding (tested: 500 ng)”.
